How the values were obtained:
[1] = molecular target: T1, eukaryotic initiation factor 4AII library interactor (pAD-GAL4 construct, DNA Database of Japan accession no. … (human, UniProt P04386 761-881; Q14240 1-407, limits assumed); assay: yeast two-hybrid, retransfection of Hf7c
T1 construct: False positive of the Hf7c screen
Experimental: (§1) Transformants were plated onto solid SD/-His-Trp-Leu (incorporating 35 mM 3-AT in the case of Y190 transformants) and incubated for up to 14 days at 30° C. After 3 initial days of growth, plates were inspected daily, and His+ colonies were transferred to SD/-His-Trp-Leu +0.07 M potassium phosphate pH 7+40 µg/ml X-gal plates which incorporated 35 mM 3-AT in the case of Y190 co-transformants. Colonies which remained His+, and in the case of Y190 co-transformants, were also lacZ+, were re-streaked onto fresh plates to check that all colonies were of uniform phenotype. After 6 days incubation at 30° C., yeast colonies were directly harvested, and plasmid DNA was isolated and used to transfect XL1 Blue. Mini-preparations of plasmid DNA were performed for at least 5 XL1 Blue colonies per transfection, with the results of restriction digests differentiating potential interactors from bait plasmids. […] Phenotypes of resulting co-transfectants were assayed quantitatively and/or qualitatively as described above.

[2] = molecular target: T2, histidyl t-RNA synthetase library interactor (pAD-GAL4 construct, EBML accession no. Z 11518) (human, UniProt P04386 761-881; P12081 2-509, limits assumed); assay: yeast two-hybrid, retransfection of Hf7c
T2 construct: False positive of the Hf7c screen
T2 sequence (looked up): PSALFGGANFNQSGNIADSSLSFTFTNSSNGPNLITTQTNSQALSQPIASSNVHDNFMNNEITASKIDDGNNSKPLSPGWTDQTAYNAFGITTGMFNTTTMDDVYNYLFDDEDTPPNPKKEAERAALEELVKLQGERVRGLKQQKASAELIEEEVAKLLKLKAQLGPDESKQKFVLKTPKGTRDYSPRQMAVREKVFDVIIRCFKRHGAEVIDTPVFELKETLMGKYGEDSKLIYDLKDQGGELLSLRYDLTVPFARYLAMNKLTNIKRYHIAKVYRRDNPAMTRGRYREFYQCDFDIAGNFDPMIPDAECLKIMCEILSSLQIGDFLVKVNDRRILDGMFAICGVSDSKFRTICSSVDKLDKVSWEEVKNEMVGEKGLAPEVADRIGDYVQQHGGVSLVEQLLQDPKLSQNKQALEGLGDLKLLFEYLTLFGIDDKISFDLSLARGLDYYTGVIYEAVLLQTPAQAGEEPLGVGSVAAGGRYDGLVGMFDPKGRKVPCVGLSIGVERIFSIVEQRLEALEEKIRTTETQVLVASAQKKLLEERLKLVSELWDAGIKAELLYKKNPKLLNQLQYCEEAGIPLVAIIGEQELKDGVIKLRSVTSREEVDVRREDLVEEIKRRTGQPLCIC
Experimental: as §1

[3] = molecular target: T3, RING10 proteasome subunit library interactor (pAD-GAL4 construct, GenBank accession no. X62598) (human, UniProt P04386 761-881; P28062 73-276, limits assumed); assay: yeast two-hybrid, retransfection of Hf7c
T3 construct: False positive of the Hf7c screen
T3 sequence (looked up): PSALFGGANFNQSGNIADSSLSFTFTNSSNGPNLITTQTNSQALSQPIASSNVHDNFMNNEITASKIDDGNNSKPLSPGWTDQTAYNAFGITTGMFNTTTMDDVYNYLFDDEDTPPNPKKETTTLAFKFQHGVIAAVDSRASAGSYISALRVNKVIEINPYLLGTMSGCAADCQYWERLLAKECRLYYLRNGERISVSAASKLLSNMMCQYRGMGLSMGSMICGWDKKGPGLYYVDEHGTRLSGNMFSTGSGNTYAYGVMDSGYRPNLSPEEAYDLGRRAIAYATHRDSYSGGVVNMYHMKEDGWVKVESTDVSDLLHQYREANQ
Experimental: as §1

[4] = molecular target: T4, hD53 interactor (GAL4 activation domain fusion, pACT2hD53) (human, UniProt P04386 768-881 (Saccharomyces cerevisiae entry)); assay: yeast two-hybrid in Y190, β-galactosidase assay
T4 construct: range 768-881
T4 sequence: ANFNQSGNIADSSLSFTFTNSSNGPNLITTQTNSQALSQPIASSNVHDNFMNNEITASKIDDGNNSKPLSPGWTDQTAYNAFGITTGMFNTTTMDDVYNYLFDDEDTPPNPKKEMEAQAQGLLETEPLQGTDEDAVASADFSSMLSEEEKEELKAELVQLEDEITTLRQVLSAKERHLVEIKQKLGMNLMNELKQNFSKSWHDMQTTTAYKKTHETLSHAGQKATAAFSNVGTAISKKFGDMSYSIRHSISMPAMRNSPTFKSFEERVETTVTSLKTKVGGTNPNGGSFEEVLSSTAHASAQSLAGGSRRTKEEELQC
Experimental: Interactions between baits and interactors were assessed by qualitatively and/or quantitatively determining HIS3 and lacZ reporter gene activity in Y190 co-transfectants. Reporter gene activities were assessed qualitatively by observing the growth and color development of Y190 co-transfectants on solid SD media lacking His, Trp and Leu (SD/-His-Trp-Leu), and incorporating 0.07 M potassium phosphate pH 7, 35 mM 3-AT, and 40 µg/ml X-gal. For quantitative assessment of interactions, β-galactosidase activity was measured using the substrate o-nitrophenyl β-D-galactopyranoside (ONPG) in liquid cultures (SD/-His-Trp-Leu +35 mM 3-AT) of Y190 co-transfectants.

Measured: binding result

B1: mD52(95-185) bait (GAL4 DNA-binding domain fusion, pAS2-1mD52(95-185)) (other)
chain: MKLLSSIEQACDICRLKKLKCSKEKPKCAKCLKNNWECRYSPKTKRSPLTRAHLTEVESRLERLEQLFLLIFPREDLDMILKMDSLQDIKALLTGLFVQDNVNKDAVTDRLASVETDMPLTLRQHRISATSSSEESSNKGQRQLTVSAYKKTSETLSQAGQKASAAFSSVGSVITKKLEDVKNSPTFKSFEEKVENLKSKVGGAKPAGGDFGEVLNSTANATSTMTTEPPPEQMTESP
notes: also called C-terminal half of mD52
no binding: all assays above
